Measured values: publication PMC3545062 (Structure (London, England : 1993), 2012)
Positions count from the first letter of the chain named. Numbers in names are those of the source. Blank lines part the entries; values can stand above or below the molecule they belong to.

Tests used:
[1] = molecular target: Cdc13 OB2 domain L401A (S. cerevisiae) (UniProt P32797); assay: cross-linking
[2] = molecular target: Cdc13 OB2 domain P371S (cdc13-1 mutation) (S. cerevisiae) (UniProt P32797); assay: cross-linking
[3] = molecular target: Cdc13 OB2 domain Y388A (S. cerevisiae) (UniProt P32797); assay: cross-linking
[4] = molecular target: T1, Cdc13 construct consisting of residues 344-924 (domains OB2-DBD-OB4) (S. cerevisiae, UniProt P32797 344-924); assay: ITC
T1 sequence (looked up): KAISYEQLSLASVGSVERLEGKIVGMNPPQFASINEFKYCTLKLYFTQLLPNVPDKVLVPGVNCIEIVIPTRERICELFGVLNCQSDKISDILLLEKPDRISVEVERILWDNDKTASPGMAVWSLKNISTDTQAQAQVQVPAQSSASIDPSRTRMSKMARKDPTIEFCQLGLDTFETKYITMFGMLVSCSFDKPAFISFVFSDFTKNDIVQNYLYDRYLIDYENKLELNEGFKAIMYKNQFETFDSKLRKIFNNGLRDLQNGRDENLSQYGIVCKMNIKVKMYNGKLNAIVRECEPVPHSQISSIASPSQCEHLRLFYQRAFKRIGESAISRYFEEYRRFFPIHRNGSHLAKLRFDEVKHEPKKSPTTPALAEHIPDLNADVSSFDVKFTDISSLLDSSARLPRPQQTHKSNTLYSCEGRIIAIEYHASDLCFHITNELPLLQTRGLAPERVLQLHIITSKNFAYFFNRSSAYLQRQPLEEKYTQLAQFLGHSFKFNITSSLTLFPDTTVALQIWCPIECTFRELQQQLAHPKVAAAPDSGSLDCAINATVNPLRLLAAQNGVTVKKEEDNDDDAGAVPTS

[5] = molecular target: the molecule itself; assay: cross-linking

Molecule: Cdc13 OB2 domain L401A (from UniProt P32797 344-495) (domain or fragment)
percent reduction of OB2 dimerization (cross-linking) [1]: 50%

B1: C-terminal domain of Stn1, residues 311-494 (domain or fragment, S. cerevisiae, UniProt P38960 311-494, looked up)
chain: NRTSAKSNLMLILLGLQMKEISNSDLYKLKEVRSVVTSLASFLFQQQNVGVMKSFDSLEKEAFRDLVNRLVSQGLIGLKDKTSETFDLLPLKNLFEYAEKRISVLMKLQCYTGTVQLSHVQEKLHLPYITTNGIVDVFKECLKRTKKQYPEVLKNWWIDLDPKNGMEDQNSGILLHLEYAAAYS
Kd [4]: 6.4 µM

B2: S. cerevisiae Cdc13 OB2 domain, wild type (domain or fragment, UniProt P32797 344-495, looked up)
chain: KAISYEQLSLASVGSVERLEGKIVGMNPPQFASINEFKYCTLKLYFTQLLPNVPDKVLVPGVNCIEIVIPTRERICELFGVLNCQSDKISDILLLEKPDRISVEVERILWDNDKTASPGMAVWSLKNISTDTQAQAQVQVPAQSSASIDPSR
stoichiometry N [5]: 2

B3: Cdc13 OB2 domain C383S (domain or fragment, S. cerevisiae, UniProt P32797 344-495, looked up)
chain: B2 chain with C40S
binding result [5]: binds

Other lines, results leading:

percent reduction of OB2 dimerization (cross-linking) [2]: 78%
Molecule: Cdc13 OB2 domain P371S (cdc13-1 mutation) (from UniProt P32797 344-495) (domain or fragment)

percent reduction of OB2 dimerization (cross-linking) [3]: 70%
Molecule: Cdc13 OB2 domain Y388A (from UniProt P32797 344-495) (domain or fragment)
